This note sets out measurements from publication PMC11247618 (Immunity, 2024).

The experiment has as its target 1b09 HCV E2 ectodomain (E2ecto) (Hepatitis C virus genotype 1b, strain …, strain). Put plainly: crystal structure.

B1: hcab17 Fab (Fab, V domains shown)
VH: QVQLNQWGAGLLKPSETLSLTCAVYGDAFSGNYWSWIRQPPGKGLQWIGEINHSGNTNYDPSLESRVSISLDTSKNQLSLKLNSVTAADTALYYCARGQRNCSGGNCYSGLWAWGQGTLVTVSS
VL: AIHMTQSPFSLSASVGDRVTITCRASQGIRNDLAWYQHKPGTAPKVLIYAASSLQDGVSSRFSGSGSGTLFTLTISSLQPEDFATYYCLQGYNYPRTFGQGTKVEMK
Consider B1, for which the binding result is reported as “binds”.

B2: hcab40 Fab (Fab, V domains shown)
VH: QVQLQQWGAGLLKPSESLSLTCVVYGGSFSGYYWSWIRQPPGKGLEWIGEINPTGSTNYNPSLNSRVTISVDRSKNHLSLKLSSVTAADTAVYFCARFLPPDYDLLTDYFDPPGAFDIWGQGTMVTVSS
VL: DIHMTQSPFSLSASVGDRVTITCRASQSISGWLAWYQQKVGNAPKLLIYKASSLESGVPSRFSGSGSGTEFTLSISSLQPDDFATYYCQQYNSYPFTFGPGTKVDMK
Turning to B2, the binding result was “binds”.

B3: hcab64 Fab (Fab, V domains shown)
VH: QVQLVQSGAEIQKPGASVKVSCRASGYTYISTSFHWVRQAPGQGLEWMGVIKTDDGSTSDTQKFQGRLRMTWDTSTSTVYMELSSLRSDDTAVYYCVSPRLGHCRRGRCYETLDWGQGSLVTVSS
VL: EIVLTQSPGTLSLSPGERATLSCRASQSVSSSYLAWYQQKPGQAPRLLVYGASTRATGIPDRFSGSGSGTDFTLTISRLEPEDFAVYYCHQYSSSFWTFGQGTKVEIK
In the case of B3, the binding result is given as “binds”.

B4: hcab55 Fab (Fab, V domains shown)
VH: QVQLVQSGAEIKKPGASVKVSCKASGYTFISNYFHWVRQAPGQGLEWMGIINPSSGSTTYGQKFQGRVTLTSDTSASIVYLELSRLRSEDTAVYYCVSPRIAHCRGGRCYETLDWGQGTLVTVSS
VL: EIVLTQSPVSLSLSPGERATLSCRASQSVSSNYLAWYQLKPGRAPRLLIYGASSRAPGIPDRFSGSGSGTDFTLTISRLEPEDFAVYYCQQYGISSWTFGQGTKVEIK
Regarding B4, the binding result is “binds”.
